Experimental data: US20210395318A1 (Molecular Partners, published 2021)

Tests used:
[1] = biological target: human CD40 on primary human B cells or human monocyte-derived dendritic cells (human, UniProt P25942 21-277); test: cell-based or functional assay
[2] = biological target: T1, biotinylated mouse CD40 (Acro Biosystem) (mouse, UniProt P27512 24-193, limits assumed, biotinylated (sites not given)); test: SPR (ProteOn XPR36), bio-mCD40 on NLC chip, Protein #5 as analyte
T1 construct: also called Bio-mCD40
T1 sequence (looked up): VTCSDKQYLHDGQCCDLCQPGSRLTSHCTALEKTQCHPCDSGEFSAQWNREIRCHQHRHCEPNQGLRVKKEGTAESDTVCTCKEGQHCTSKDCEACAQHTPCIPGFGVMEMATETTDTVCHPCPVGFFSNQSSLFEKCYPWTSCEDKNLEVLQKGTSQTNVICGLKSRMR
Experimental: (§1) All SPR measurements were performed using a ProteOn XPR36 instrument (BioRad) and a running buffer of PBS pH 7.4 containing 0.005% Tween 20® (PBST). The 1:1 Langmuir model was used for the fitting of SPR traces.
(§2) ProteOn setup for Protein #5 binding to CD40 of different species. CD40 proteins (Acro Biosystem) of different species (human, cynomolgus, mouse) were biotinylated with standard methods known in the art, resulting in bio-hCD40, bio-cCD40 and bio-mCD40 proteins. The bio-hCD40, bio-cCD40 and bio-mCD40 proteins were immobilized on an NLC chip (BioRad) to a level of respectively 300 RU, 250 RU and 300 RU. The interaction of Protein #5 with CD40 was measured by injecting Protein #5 in a serial dilution of 3, 1.5, 0.75, 0.38 and 0.19 nM with an association of 120 s and dissociation of 900 s using a constant flow of 100 μl/min. The measurement was repeated two or three times and the targets were regenerated between the individual measurements using 10 mM glycine pH 2 for 18 s at a flow of 100 μl/min. The signals were double referenced against the running buffer (PBST) treated control lanes.

human FAP (recombinant) = biological target: T2, human FAP (recombinant) (human, UniProt Q12884 26-760); test: SPR (ProteOn XPR36), FAP immobilized on GLC chip, Protein #5 as analyte, PBST, 1:1 Langmuir
T2 construct: also called hFAP; rhFAP
T2 sequence: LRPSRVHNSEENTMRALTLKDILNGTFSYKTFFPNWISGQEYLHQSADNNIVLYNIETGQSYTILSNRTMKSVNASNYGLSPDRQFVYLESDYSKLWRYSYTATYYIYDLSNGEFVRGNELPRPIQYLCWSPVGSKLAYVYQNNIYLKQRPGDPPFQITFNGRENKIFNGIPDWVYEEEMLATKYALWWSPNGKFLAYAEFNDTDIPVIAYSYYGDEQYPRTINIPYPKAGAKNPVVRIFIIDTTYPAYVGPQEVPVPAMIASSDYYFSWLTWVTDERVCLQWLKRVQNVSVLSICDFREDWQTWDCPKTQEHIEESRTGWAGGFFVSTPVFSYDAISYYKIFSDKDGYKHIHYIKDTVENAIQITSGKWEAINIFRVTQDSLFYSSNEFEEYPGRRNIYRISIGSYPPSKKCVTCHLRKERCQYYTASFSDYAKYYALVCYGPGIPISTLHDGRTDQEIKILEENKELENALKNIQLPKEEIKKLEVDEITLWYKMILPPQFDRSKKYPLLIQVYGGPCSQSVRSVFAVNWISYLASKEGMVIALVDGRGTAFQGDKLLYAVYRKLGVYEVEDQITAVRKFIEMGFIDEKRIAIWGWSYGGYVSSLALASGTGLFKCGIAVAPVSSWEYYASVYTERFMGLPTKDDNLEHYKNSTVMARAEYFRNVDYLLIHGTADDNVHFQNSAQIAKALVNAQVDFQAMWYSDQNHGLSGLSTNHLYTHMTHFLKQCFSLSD
Experimental: as §1
ProteOn setup for Protein #5 binding to FAP of different species. hFAP, cynomolgus FAP (cFAP) and mouse FAP (mFAP) were immobilized on a GLC chip (BioRad) in 10 mM Na Acetate buffer pH5.3 to a level of 1200 RU, 800 RU and 2000 RU, respectively. The interaction of FAP and Protein #5 was measured by applying Protein #5 in a serial dilution of […] and 3.13 nM with an association of 120 s and dissociation of 1800 s using a constant flow of 100 μl/min. The targets were regenerated using 10 mM glycine pH 2 and 124 mM H₃PO₄. The signals were double referenced against the PBST treated control lanes.

[3] = biological target: T3, biotinylated human CD40 (Acro Biosystem) (human, UniProt P25942 21-193, biotinylated (sites not given)); test: SPR (ProteOn XPR36), biotinylated CD40 on NLC chip, Protein #5 as analyte, PBST, 1:1 Langmuir
T3 construct: Bought protein; also called Bio-hCD40; hCD40
Experimental: as §1, §2

[4] = biological target: T4, biotinylated cynomolgus CD40 (Acro Biosystem) (cynomolgus, UniProt G7PG38 21-193, biotinylated (sites not given)); test: as above
T4 construct: also called Bio-cCD40
Experimental: as §1, §2

mouse serum albumin = biological target: T5, mouse serum albumin (mouse, UniProt P07724 25-608); test: SPR (ProteOn XPR36), Protein #5 captured on hFAP-coated GLC chip, serum albumin as analyte, PBST; flagged as overestimated, inaccurate fit; MSA as analyte; patent flags the fit as inaccurate (Chi^2/Rmax 13.1 %) and the KD as overestimated due to nonspecific binding of MSA on the chip
T5 construct: also called MSA
Experimental: as §1
ProteOn setup for Protein #5 binding to serum albumin of different species. First, human FAP (hFAP) was coated on a GLC chip (BioRad) to a level of 700 RU before 50 nM Protein #5 was immobilized as analyte for 120 s (dissociation of 0 s) at constant flow of 100 μl/min to a level of 120 RU. The binding of the serum albumin to Protein #5 was measured by injecting human serum albumin (HSA), cynomolgus serum albumin (CSA) and mouse serum albumin (MSA) in a serial dilution of 100, 33, 11 and 3.7 nM with an association of 120 s and a dissociation of 600 s at a constant flow of 100 μl/min. HSA, CSA and MSA binding was measured serially and the hFAP/Protein #5 complex was regenerated each time with 10 mM glycine pH2 for 18 s at a flow of 100 μl/min. Thus, Protein #5 had to be re-immobilized on hFAP after each regeneration step. […] The kinetic was calculated on the first 300 s of dissociation.

T3 sequence (P25942 21-193 H80K/K81H limits assumed): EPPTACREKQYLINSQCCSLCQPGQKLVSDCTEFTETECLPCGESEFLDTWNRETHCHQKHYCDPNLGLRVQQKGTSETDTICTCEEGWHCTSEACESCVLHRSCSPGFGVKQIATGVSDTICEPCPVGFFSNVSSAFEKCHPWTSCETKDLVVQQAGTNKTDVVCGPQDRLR
human CD40 on primary human B cells or human monocyte-derived dendritic cells, sequence (P25942 21-277 H80K/K81H limits assumed): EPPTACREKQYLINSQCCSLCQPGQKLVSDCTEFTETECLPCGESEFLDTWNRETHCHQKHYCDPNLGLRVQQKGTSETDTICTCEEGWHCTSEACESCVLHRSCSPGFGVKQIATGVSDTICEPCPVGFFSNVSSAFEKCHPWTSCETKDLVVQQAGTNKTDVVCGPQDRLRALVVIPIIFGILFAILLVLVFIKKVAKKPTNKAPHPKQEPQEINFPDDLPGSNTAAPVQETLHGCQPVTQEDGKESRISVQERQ

- EC50, upregulation of CD86 and CD69 in human B cells co-cultured with FAP-expressing CHO cells [1]: 0.04 to 0.07 nM
- Kd (human FAP (recombinant)): 0.307 nM
- koff (human FAP (recombinant)): 0.000126 s⁻¹
- kon (human FAP (recombinant)): 409000 M⁻¹ s⁻¹
- Kd [3]: 0.103 nM
- koff [3]: 0.00103 s⁻¹
- kon [3]: 1.01e+07 M⁻¹ s⁻¹
- Kd [4]: 0.101 nM
- koff [4]: 0.000824 s⁻¹
- kon [4]: 8.25e+06 M⁻¹ s⁻¹
- Kd (mouse serum albumin): 40 nM
B1: DARPin Protein #5 (designed binder)
chain: GSDLGKKLLEAARAGQDDEVRELLKAGADVNAKDYFSHTPLHLAARNGHLKIVEVLLKAGADVNAKDFAGKTPLHLAAADGHLEIVEVLLKAGADVNAQDIFGKTPADIAADAGHEDIAEVLQKAAGSPTPTPTTPTPTPTTPTPTPTGSDLGKKLLEAARAGQDDEVRILLAAGADVNAKDVLGWTPLHLAAFEGHLEIVEVLLKAGADVNAKDKKGWTPLQLAARTGHLEIVEVLLKAGADVNAKDHIGATPLHLAAWQGHPEIVEVLLKAGADVNAQDKSGKTPADLAADAGHEDIAEVLQKAAGSPTPTPTTPTPTPTTPTPTPTGSDLGKKLLQAARAGQLDEVRELLKAGADVNAKDTWGFTPLHIAAESGHLEIVEVLLKAGADVNAKDVQGRTPLHIAAHSGHLEIVEVLLKAGADVNAKDFRGWTPLHLAAWSGHLEIVEILLKAGADVNAQDKSGKTPADLAARAGHQDIAEVLQKAAGSPTPTPTTPTPTPTTPTPTPTGSDLGKKLLQAARAGQLDEVRELLKAGADVNAKDTWGFTPLHIAAESGHLEIVEVLLKAGADVNAKDVQGRTPLHIAAHSGHLEIVEVLLKAGADVNAKDFRGWTPLHLAAWSGHLEIVEILLKAGADVNAQDKSGKTPADLAARAGHQDIAEVLQKAA
notes: also called SMA136; Molecule No. 1
- binding result [2]: no binding (tested: 3 nM (highest concentration injected))
